{"source": "the supplement of paper PMC11875167", "experiment": "observed amide hydrogen exchange rate constant kobs (stretched exponential fit, FD-normalized) (s^-1); higher = faster H/D exchange (less protection)", "details": "pH 3 (pH read); temperature: 20 °C; D2O: 88%", "in_short": "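Uptake curves were fitted to a stretched single exponential with β = 0.8, and kobs, the observed exchange rate constant, is the fitted rate. The data came from Jurkat tryptic peptides (LysC/trypsin, carbamidomethylated cysteines) labeled in 88% D2O at pHread 3, 20 °C, then quenched with 0.23% formic acid at 13 times from 18 to 93,600 s in processing triplicates. MS1 uptake from a Q-Exactive HF, analyzed in HDExaminer with no back-exchange correction, was normalized to full-deuteration controls (24 h, 37 °C).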", "data": [{"substance": "PYVEEGLHPQIIIR", "values": [{"measurement": "observed amide hydrogen exchange rate constant kobs", "result": 0.000843}]}, {"substance": "QDFVQHFSQIVR", "values": [{"measurement": "observed amide hydrogen exchange rate constant kobs", "result": 0.00117}]}, {"substance": "QEMQEVQSSR", "values": [{"measurement": "observed amide hydrogen exchange rate constant kobs", "result": 0.00166}]}, {"substance": "QEYDESGPSIVHRK", "values": [{"measurement": "observed amide hydrogen exchange rate constant kobs", "result": 0.00258}]}, {"substance": "QFLFRPWDVTK", "values": [{"measurement": "observed amide hydrogen exchange rate constant kobs", "result": 0.000828}]}, {"substance": "QHYIDLK", "values": [{"measurement": "observed amide hydrogen exchange rate constant kobs", "result": 0.00137}]}, {"substance": "QIPQATASMK", "values": [{"measurement": "observed amide hydrogen exchange rate constant kobs", "result": 0.00103}]}, {"substance": "QITVNDLPVGR", "values": [{"measurement": "observed amide hydrogen exchange rate constant kobs", "result": 0.000932}]}, {"substance": "QIVWNGPVGVFEWEAFAR", "values": [{"measurement": "observed amide hydrogen exchange rate constant kobs", "result": 0.00105}]}, {"substance": "QLFHPEQLITGK", "values": [{"measurement": "observed amide hydrogen exchange rate constant kobs", "result": 0.00131}]}, {"substance": "QQISLATQMVR", "values": [{"measurement": "observed amide hydrogen exchange rate constant kobs", "result": 0.00147}]}, {"substance": "QSKPVTTPEEIAQVATISANGDK", "values": [{"measurement": "observed amide hydrogen exchange rate constant kobs", "result": 0.000917}]}, {"substance": "QSLGELIGTLNAAK", "values": [{"measurement": "observed amide hydrogen exchange rate constant kobs", "result": 0.000915}]}, {"substance": "QTVAVGVIK", "values": [{"measurement": "observed amide hydrogen exchange rate constant kobs", "result": 0.000426}]}, {"substance": "QVVESAYEVIK", "values": [{"measurement": "observed amide hydrogen exchange rate constant kobs", "result": 0.000781}]}, {"substance": "RAAEDDEDDDVDTKK", "values": [{"measurement": "observed amide hydrogen exchange rate constant kobs", "result": 0.0039}]}, {"substance": "RALEQQVEEMK", "values": [{"measurement": "observed amide hydrogen exchange rate constant kobs", "result": 0.000806}]}, {"substance": "RAPFDLFENK", "values": [{"measurement": "observed amide hydrogen exchange rate constant kobs", "result": 0.00167}]}, {"substance": "REEEEFNTGPLSVLTQSVK", "values": [{"measurement": "observed amide hydrogen exchange rate constant kobs", "result": 0.00112}]}, {"substance": "RFDDAVVQSDMK", "values": [{"measurement": "observed amide hydrogen exchange rate constant kobs", "result": 0.00151}]}, {"substance": "RGILTLK", "values": [{"measurement": "observed amide hydrogen exchange rate constant kobs", "result": 0.000691}]}, {"substance": "RGLEVNK", "values": [{"measurement": "observed amide hydrogen exchange rate constant kobs", "result": 0.00164}]}, {"substance": "RHLTGEFEK", "values": [{"measurement": "observed amide hydrogen exchange rate constant kobs", "result": 0.00392}]}, {"substance": "RLNINAAK", "values": [{"measurement": "observed amide hydrogen exchange rate constant kobs", "result": 0.000596}]}, {"substance": "RNTTIPTK", "values": [{"measurement": "observed amide hydrogen exchange rate constant kobs", "result": 0.00112}]}, {"substance": "RSELIAK", "values": [{"measurement": "observed amide hydrogen exchange rate constant kobs", "result": 0.000984}]}, {"substance": "RVHPVSTMIK", "values": [{"measurement": "observed amide hydrogen exchange rate constant kobs", "result": 0.00129}]}, {"substance": "RVIISAPSADAPMFVMGVNHEK", "values": [{"measurement": "observed amide hydrogen exchange rate constant kobs", "result": 0.000994}]}, {"substance": "RVLIAAHGNSLR", "values": [{"measurement": "observed amide hydrogen exchange rate constant kobs", "result": 0.00149}]}, {"substance": "SADTLWDIQK", "values": [{"measurement": "observed amide hydrogen exchange rate constant kobs", "result": 0.000935}]}, {"substance": "SADTLWGIQK", "values": [{"measurement": "observed amide hydrogen exchange rate constant kobs", "result": 0.000987}]}, {"substance": "SAEFLLHMLK", "values": [{"measurement": "observed amide hydrogen exchange rate constant kobs", "result": 0.00118}]}, {"substance": "SDALETLGFLNHYQMK", "values": [{"measurement": "observed amide hydrogen exchange rate constant kobs", "result": 0.00133}]}, {"substance": "SESPKEPEQLRK", "values": [{"measurement": "observed amide hydrogen exchange rate constant kobs", "result": 0.00165}]}, {"substance": "SFFTDDDK", "values": [{"measurement": "observed amide hydrogen exchange rate constant kobs", "result": 0.0032}]}, {"substance": "SFYPEEVSSMVLTK", "values": [{"measurement": "observed amide hydrogen exchange rate constant kobs", "result": 0.000867}]}, {"substance": "SGYLAGDK", "values": [{"measurement": "observed amide hydrogen exchange rate constant kobs", "result": 0.00168}]}, {"substance": "SIEVIENR", "values": [{"measurement": "observed amide hydrogen exchange rate constant kobs", "result": 0.000822}]}, {"substance": "SINPDEAVAYGAAVQAAILSGDK", "values": [{"measurement": "observed amide hydrogen exchange rate constant kobs", "result": 0.000731}]}, {"substance": "SIQFVDWCPTGFK", "values": [{"measurement": "observed amide hydrogen exchange rate constant kobs", "result": 0.00182}]}, {"substance": "SIYGEK", "values": [{"measurement": "observed amide hydrogen exchange rate constant kobs", "result": 0.00146}]}, {"substance": "SIYYITGESK", "values": [{"measurement": "observed amide hydrogen exchange rate constant kobs", "result": 0.00108}]}, {"substance": "SLADELALVDVLEDK", "values": [{"measurement": "observed amide hydrogen exchange rate constant kobs", "result": 0.00105}]}, {"substance": "SLAGSSGPGASSGTSGDHGELVVR", "values": [{"measurement": "observed amide hydrogen exchange rate constant kobs", "result": 0.00237}]}, {"substance": "SLEGDLEDLK", "values": [{"measurement": "observed amide hydrogen exchange rate constant kobs", "result": 0.00103}]}, {"substance": "SLTNDWEDHLAVK", "values": [{"measurement": "observed amide hydrogen exchange rate constant kobs", "result": 0.00185}]}, {"substance": "SNEILTAIIQGMR", "values": [{"measurement": "observed amide hydrogen exchange rate constant kobs", "result": 0.000423}]}, {"substance": "SNNVEMDWVLK", "values": [{"measurement": "observed amide hydrogen exchange rate constant kobs", "result": 0.000871}]}, {"substance": "SPYQEFTDHLVK", "values": [{"measurement": "observed amide hydrogen exchange rate constant kobs", "result": 0.00116}]}, {"substance": "SQIHDIVLVGGSTR", "values": [{"measurement": "observed amide hydrogen exchange rate constant kobs", "result": 0.00136}]}, {"substance": "SQLDIIIHSLK", "values": [{"measurement": "observed amide hydrogen exchange rate constant kobs", "result": 0.000886}]}, {"substance": "SSFYVNGLTLGGQK", "values": [{"measurement": "observed amide hydrogen exchange rate constant kobs", "result": 0.00091}]}, {"substance": "SSGPTSLFAVTVAPPGAR", "values": [{"measurement": "observed amide hydrogen exchange rate constant kobs", "result": 0.000757}]}, {"substance": "SSTPEEVK", "values": [{"measurement": "observed amide hydrogen exchange rate constant kobs", "result": 0.00152}]}, {"substance": "STAGDTHLGGEDFDNR", "values": [{"measurement": "observed amide hydrogen exchange rate constant kobs", "result": 0.00417}]}, {"substance": "STGGAPTFNVTVTK", "values": [{"measurement": "observed amide hydrogen exchange rate constant kobs", "result": 0.000782}]}, {"substance": "STTTGHLIYK", "values": [{"measurement": "observed amide hydrogen exchange rate constant kobs", "result": 0.00173}]}, {"substance": "SVETIK", "values": [{"measurement": "observed amide hydrogen exchange rate constant kobs", "result": 0.000994}]}, {"substance": "SVPTSTVFYPSDGVATEK", "values": [{"measurement": "observed amide hydrogen exchange rate constant kobs", "result": 0.000911}]}, {"substance": "SVTEQGAELSNEER", "values": [{"measurement": "observed amide hydrogen exchange rate constant kobs", "result": 0.00228}]}, {"substance": "SVVLMSHLGRPDGVPMPDK", "values": [{"measurement": "observed amide hydrogen exchange rate constant kobs", "result": 0.00138}]}, {"substance": "SYDVPPPPMEPDHPFYSNISK", "values": [{"measurement": "observed amide hydrogen exchange rate constant kobs", "result": 0.00134}]}, {"substance": "SYELPDGQVITIGNER", "values": [{"measurement": "observed amide hydrogen exchange rate constant kobs", "result": 0.000908}]}, {"substance": "TAFDEAIAELDTLNEDSYK", "values": [{"measurement": "observed amide hydrogen exchange rate constant kobs", "result": 0.00156}]}, {"substance": "TAFQEALDAAGDK", "values": [{"measurement": "observed amide hydrogen exchange rate constant kobs", "result": 0.00172}]}]}
